Columns and labels:
Saccharomyces cerevisiae [1] = assay: protein stability index of tFT-peptide fusion in wild type (PSI (0-1 scale)); higher = more stable (slower turnover); conditions: genetic background: wild type
Saccharomyces cerevisiae [2] = assay: protein stability index of tFT-peptide fusion in deletion strain of DOA10 (PSI (0-1 scale)); higher = more stable (slower turnover)
Description: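 MPS profiling in S. cerevisiae of two library types built from selected 12-aa C-degron peptides (IN1, IN2, LN1, LN3, VN2, R1-R5, W1-W3, Atg1 and Rpa12 C-termini): saturation mutagenesis libraries and C-terminal +1 capping libraries (13 aa). Each peptide is fused to the C-terminus of a sfGFP-mCherry timer, after a GGGS linker. Cells are FACS-sorted into 8 mCherry/sfGFP bins and sequenced. PSI runs from 0 (unstable) to 1 (stable), measured once in wild type and in the das1Δ or doa10Δ background.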
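Throughout, for protein stability index of tFT-peptide fusion in deletion strain of DOA10: PSI per variant is the weighted mean of its sequencing read distribution over the sorted stability bins, counting only variants with over 10 reads summed across bins.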
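Throughout, for protein stability index of tFT-peptide fusion in wild type: PSI derived as read-weighted mean over the 8 sorting bins, only variants exceeding 10 total reads kept, mCherry placed adjacent to the peptide and sfGFP distal.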

Row | Sequence | protein stability index (Saccharomyces cerevisiae [1]) | protein stability index (Saccharomyces cerevisiae [2])
1 | CPVSLPILLFFR | 0.0943 | 0.602
2 | CSLRVLLPLYFR | 0.0975 | 0.622
3 | DLYMCSVGCWFR | 0.453 | 0.697
4 | ELVSLPILLFFR | 0.0794 | 0.633
5 | FSLRVLLPLYFR | 0.268 | 0.608
6 | GAYMCSVGCWFR | 0.427 | 0.686
7 | GDYMCSVGCWFR | 0.462 | 0.692
8 | GLIMCSVGCWFR | 0.197 | 0.39
9 | GLLMCSVGCWFR | 0.22 | 0.409
10 | GLMMCSVGCWFR | 0.237 | 0.506
11 | GLPMCSVGCWFR | 0.267 | 0.699
12 | GLWMCSVGCWFR | 0.315 | 0.54
13 | GLYMCAVGCWFR | 0.279 | 0.54
14 | GLYMCCVGCWFR | 0.303 | 0.504
15 | GLYMCSCGCWFR | 0.46 | 0.674
16 | GLYMCSNGCWFR | 0.397 | 0.703
17 | GLYMCSPGCWFR | 0.246 | 0.679
18 | GLYMCSVGAWFR | 0.451 | 0.667
19 | GLYMCSVGCFFR | 0.408 | 0.632
20 | GLYMCSVGCIFR | 0.587 | 0.637
21 | GLYMCSVGCSFR | 0.621 | 0.651
22 | GLYMCSVGCTFR | 0.609 | 0.64
23 | GLYMCSVGCWDR | 0.627 | 0.665
24 | GLYMCSVGCWFY | 0.398 | 0.52

Row | Sequence | protein stability index (Saccharomyces cerevisiae [1]) | protein stability index (Saccharomyces cerevisiae [2])
25 | GLYMCSVICWFR | 0.231 | 0.314
26 | GLYMCSVLCWFR | 0.274 | 0.369
27 | GLYMCSVSCWFR | 0.338 | 0.446
28 | GLYMISVGCWFR | 0.17 | 0.341
29 | GLYQCSVGCWFR | 0.434 | 0.676
30 | GLYSCSVGCWFR | 0.451 | 0.676
31 | GLYYCSVGCWFR | 0.249 | 0.605
32 | GMYMCSVGCWFR | 0.271 | 0.713
33 | GNYMCSVGCWFR | 0.405 | 0.699
34 | MITLPMCPLLLR | 0.302 | 0.626
35 | MSLRVLLPLYFR | 0.314 | 0.622
36 | QLVSLPILLFFR | 0.0846 | 0.647
37 | QSLRVLLPLYFR | 0.283 | 0.659
38 | RCTRLDAIYFRI | 0.46 | 0.674
39 | RILRVLLPLYFR | 0.386 | 0.654
40 | RLTRLDAIYFRI | 0.379 | 0.663
41 | RQLRVLLPLYFR | 0.216 | 0.665
42 | RRLRVLLPLYFR | 0.292 | 0.668
43 | RSLAVLLPLYFR | 0.34 | 0.68
44 | RSLRVALPLYFR | 0.189 | 0.675
45 | RSLRVLLHLYFR | 0.254 | 0.605
46 | RSLRVLLLLYFR | 0.217 | 0.432
47 | RSLRVLLPDYFR | 0.64 | 0.672
48 | RSLRVLLPGYFR | 0.624 | 0.673

Row | Sequence | protein stability index (Saccharomyces cerevisiae [1]) | protein stability index (Saccharomyces cerevisiae [2])
49 | RSLRVLLPLEFR | 0.601 | 0.679
50 | RSLRVLLPLTFR | 0.379 | 0.671
51 | RSLRVLLPLYFL | 0.319 | 0.516
52 | RSLRVLLPLYFRF | 0.195 | 0.584
53 | RSLRVLLPLYFRH | 0.284 | 0.616
54 | RSLRVLLPLYFRQ | 0.205 | 0.606
55 | RSLRVLLPLYFRV | 0.164 | 0.441
56 | RSLRVLLPLYIR | 0.255 | 0.596
57 | RSLRVLLPLYPR | 0.65 | 0.69
58 | RSLRVLLPLYWR | 0.301 | 0.658
59 | RSLRVLLTLYFR | 0.391 | 0.511
60 | RSLRVLNPLYFR | 0.359 | 0.684
61 | RSLRVLWPLYFR | 0.181 | 0.676
62 | RSLRVQLPLYFR | 0.136 | 0.685
63 | RSLRVSLPLYFR | 0.15 | 0.687
64 | RSLRVTLPLYFR | 0.159 | 0.676
65 | RSPRVLLPLYFR | 0.334 | 0.681
66 | RSRRVLLPLYFR | 0.297 | 0.702
67 | RSSRVLLPLYFR | 0.346 | 0.699
68 | RVCRLDAIYFRI | 0.403 | 0.638
69 | RVIRLDAIYFRI | 0.331 | 0.653
70 | RVLRVLLPLYFR | 0.369 | 0.634
71 | RVQRLDAIYFRI | 0.426 | 0.666
72 | RVTQLDAIYFRI | 0.524 | 0.685

Row | Sequence | protein stability index (Saccharomyces cerevisiae [1]) | protein stability index (Saccharomyces cerevisiae [2])
73 | RVTRIDAIYFRI | 0.337 | 0.693
74 | RVTRLDAINFRI | 0.683 | 0.729
75 | RVTRLDAIYFCI | 0.378 | 0.435
76 | RVTRLDAIYFPI | 0.703 | 0.731
77 | RVTRLDAIYFRIG | 0.335 | 0.408
78 | RVTRLDAIYFRIP | 0.247 | 0.371
79 | RVTRLDAIYFRIV | 0.0601 | 0.114
80 | RVTRLDAIYFRP | 0.643 | 0.697
81 | RVTRLDAIYVRI | 0.469 | 0.635
82 | RVTRLDALYFRI | 0.32 | 0.705
83 | RVTRLDFIYFRI | 0.171 | 0.596
84 | RVTRLDIIYFRI | 0.271 | 0.645
85 | RVTRLDNIYFRI | 0.484 | 0.702
86 | RVTRLDWIYFRI | 0.164 | 0.495
87 | RVTRLGAIYFRI | 0.317 | 0.634
88 | RVTRLQAIYFRI | 0.202 | 0.402
89 | RVTRVDAIYFRI | 0.442 | 0.68
90 | RYLRVLLPLYFR | 0.335 | 0.659
91 | SITLPMCPLLLR | 0.248 | 0.65
92 | SSLRVLLPLYFR | 0.252 | 0.679
93 | VLVSLPILLFFR | 0.0972 | 0.56
94 | VVTRLDAIYFRI | 0.302 | 0.671
95 | YLVSLPILLFFR | 0.0822 | 0.538

Source: the supplement of paper PMC10724198
